Measured values taken from patent US20250129145A1 (Ablynx, published 2025).

Assays:
human serum albumin [1] = target: T1, human serum albumin (human, UniProt P02768 25-609); assay: SPR Biacore 8K+, HSA immobilized (C1 chip), pH 7.4, bivalent analyte fit
T1 construct: Bought protein; also called HSA
Description: (§1) The affinities of the purified multivalent albumin binding constructs for HSA at pH 7.4 was determined on a Biacore 8K+ instrument. HSA (Sigma-Aldrich—Sigma, Cat No. A8763) was immobilized on a Series S Sensor Chip C1. The multivalent albumin binding proteins as described in Table 12 above were injected at 9 different concentrations (between 1.6 and 2500 nM) and allowed to associate for 120 s at 30 μL/min and dissociate for 600 s.

human serum albumin [2] = target: T1, human serum albumin; assay: SPR Biacore 8K+, HSA immobilized (C1 chip), pH 7.4, bivalent analyte fit (ka1)
Description: as §1

human serum albumin [3] = target: T1, human serum albumin; assay: SPR, pH 7.4, immobilized HSA density ~3000 RU
Description: (§2) The purified multivalent albumin binding constructs were also tested in SPR on different densities of HSA (100 RU until 6700 RU) to detect avidity.

human serum albumin [4] = target: T1, human serum albumin; assay: SPR, pH 7.4, immobilized HSA density ~100 RU
Description: as §2

human serum albumin [5] = target: T1, human serum albumin; assay: SPR, pH 7.4, immobilized HSA density ~500 RU
Description: as §2

human serum albumin [6] = target: T1, human serum albumin; assay: SPR Biacore 8K+, HSA immobilized (C1 chip), pH 7.4, bivalent analyte fit (KD1)
Description: as §1

human serum albumin [7] = target: T1, human serum albumin; assay: SPR Biacore 8K+, HSA immobilized (C1 chip), pH 7.4, bivalent analyte fit (kd1)
Description: as §1

human serum albumin [8] = target: T1, human serum albumin; assay: SPR, pH 7.4, immobilized HSA density ~6700 RU
Description: as §2

mouse serum albumin [9] = target: T2, mouse serum albumin (mouse, UniProt P07724 25-608); assay: SPR ProteOn XPR36, MSA immobilized (GLC sensor), pH 7.4, Langmuir 1:1 fit
T2 construct: Bought protein; also called MSA
T2 sequence (P07724 25-608 limits assumed): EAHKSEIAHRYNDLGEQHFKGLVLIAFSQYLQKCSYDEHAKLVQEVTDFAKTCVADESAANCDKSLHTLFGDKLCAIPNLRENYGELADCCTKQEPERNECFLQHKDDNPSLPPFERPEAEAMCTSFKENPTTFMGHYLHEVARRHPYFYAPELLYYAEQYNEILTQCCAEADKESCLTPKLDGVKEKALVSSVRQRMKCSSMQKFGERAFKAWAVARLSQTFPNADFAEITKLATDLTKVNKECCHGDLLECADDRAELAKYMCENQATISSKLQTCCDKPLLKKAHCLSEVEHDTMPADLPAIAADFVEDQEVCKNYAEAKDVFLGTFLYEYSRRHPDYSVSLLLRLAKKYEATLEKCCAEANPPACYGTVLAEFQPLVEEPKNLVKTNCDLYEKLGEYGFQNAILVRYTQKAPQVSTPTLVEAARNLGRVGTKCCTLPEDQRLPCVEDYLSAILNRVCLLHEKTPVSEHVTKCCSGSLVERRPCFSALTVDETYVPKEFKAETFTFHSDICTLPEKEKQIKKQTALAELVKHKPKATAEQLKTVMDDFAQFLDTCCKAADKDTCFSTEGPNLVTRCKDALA
Description: (§3) In a first experiment, the affinities of monovalent (ALB00223) and a bivalent ALB23002 construct (T032200003) for human and mouse serum albumin (HSA and MSA, respectively) at pH 6.0 and pH 7.4 were determined on a ProteOn XPR36 instrument (Bio-rad Laboratories, Inc.). HSA or MSA (HSA: Sigma-Aldrich—Sigma, Cat No. A8763; MSA: Albumin Bioscience, Cat No. 2601) was immobilized via amine coupling on a GLC sensor (short matrix, normal capacity). The constructs were injected at 6 different concentrations (between 0.95 and 500 nM) and allowed to associate for 120 s at 45 μL/min and dissociate for 600 s. Evaluation of the sensorgrams was based on the Kinetic Langmuir 1:1 (simultaneous ka/kd) fit.

human serum albumin [10] = target: T1, human serum albumin; assay: SPR ProteOn XPR36, HSA immobilized (GLC sensor), pH 7.4, Langmuir 1:1 fit
Description: as §3

mouse serum albumin [11] = target: T2, mouse serum albumin; assay: SPR ProteOn XPR36, MSA immobilized (GLC sensor), pH 6.0, Langmuir 1:1 fit
Description: as §3

human serum albumin [12] = target: T1, human serum albumin; assay: SPR ProteOn XPR36, HSA immobilized (GLC sensor), pH 6.0, Langmuir 1:1 fit
Description: as §3

| Binder | ka2 (bivalent analyte fit) (human serum albumin [1]) [M⁻¹ s⁻¹] | kd2 (bivalent analyte fit) (human serum albumin [1]) [s⁻¹] | kon (human serum albumin [2]) [M⁻¹ s⁻¹] | koff (human serum albumin [3]) [s⁻¹] | koff (human serum albumin [4]) [s⁻¹] | koff (human serum albumin [5]) [s⁻¹] | Kd (human serum albumin [6]) [nM] | koff (human serum albumin [7]) [s⁻¹] | koff (human serum albumin [8]) [s⁻¹] | other results |
| --- | --- | --- | --- | --- | --- | --- | --- | --- | --- | --- |
| TPP-66099 (VHH, also called ALB23002-35GS-ALB23002-35GS-ALB23002-A) EVQLVESGGGVVQPGGSLRLSCAASGFTFRSFGMSWVRQAPGKGPEWVSSISGSGSDTLYADSVKGRFTISRDNSKNTLYLQMNSLRPEDTALYYCTIGGSLSRSSQGTLVTVSSGGGGSGGGGSGGGGSGGGGSGGGGSGGGGSGGGGSEVQLVESGGGVVQPGGSLRLSCAASGFTFRSFGMSWVRQAPGKGPEWVSSISGSGSDTLYADSVKGRFTISRDNSKNTLYLQMNSLRPEDTALYYCTIGGSLSRSSQGTLVTVSSGGGGSGGGGSGGGGSGGGGSGGGGSGGGGSGGGGSEVQLVESGGGVVQPGGSLRLSCAASGFTFRSFGMSWVRQAPGKGPEWVSSISGSGSDTLYADSVKGRFTISRDNSKNTLYLQMNSLRPEDTALYYCTIGGSLSRSSQGTLVTVSSA | 0.0022 | 0.0038 | 370000 | 7.2e-05 | 0.00041 | 0.00018 | 1.4 | 0.0005 | 3.6e-05 |  |
| ALB00223 (VHH, also called ALB00223-A; Alb223) VHH: EVQLVESGGGVVQPGGSLRLSCAASGFTFRSFGMSWVRQAPGKGPEWVSSISGSGSDTLYADSVKGRFTISRDNSKNTLYLQMNSLRPEDTALYYCTIGGSLSRSSQGTLVTVSS |  |  |  |  |  |  |  |  |  | Kd (mouse serum albumin [9]): 9.09 nM; koff (mouse serum albumin [9]): 0.00697 s⁻¹; kon (mouse serum albumin [9]): 767000 M⁻¹ s⁻¹; Kd (human serum albumin [10]): 1.37 nM; koff (human serum albumin [10]): 0.000809 s⁻¹; kon (human serum albumin [10]): 592000 M⁻¹ s⁻¹; Kd (mouse serum albumin [11]): 6.02 nM; koff (mouse serum albumin [11]): 0.00618 s⁻¹; kon (mouse serum albumin [11]): 1.03e+06 M⁻¹ s⁻¹; Kd (human serum albumin [12]): 0.69 nM; koff (human serum albumin [12]): 0.000593 s⁻¹; kon (human serum albumin [12]): 853000 M⁻¹ s⁻¹ |
| IRR00164 (VHH, also called CNB-9GS-CNB-9GS-CNB-9GS-ALB23002-A; CNB-CNB-CNB-Alb223) VHH: EVQLVESGGGVVQPGGSLRLSCAASGFTFRSFGMSWVRQAPGKGPEWVSSISGSGSDTLYADSVKGRFTISRDNSKNTLYLQMNSLRPEDTALYYCTIGGSLSRSSQGTLVTVSS |  |  |  | 0.0016 |  | 0.002 |  |  | 0.0012 |  |
| TPP-66094 (VHH, also called T023500029-35GS-ALB23002-A; T023500029-35GS-Alb223) EVQLVESGGGVVQPGDSLRLSCAASGGTFSTYVMGWFRQAPGKEREFVSAISQNSIHTYYANSVKGRFTISRDNSKNTVYLQLNSLRPEDTALYYCAASRFTSWYTADYEYDYWGQGTLVTVSSGGGGSGGGGSGGGGSGGGGSGGGGSGGGGSGGGGSEVQLVESGGGVVQPGGSLRLSCAASGFTFRSFGMSWVRQAPGKGPEWVSSISGSGSDTLYADSVKGRFTISRDNSKNTLYLQMNSLRPEDTALYYCTIGGSLSRSSQGTLVTVSSA | 0.00027 | 0.0022 | 270000 | 7.6e-05 | 0.00012 | 9.3e-05 | 0.49 | 0.00013 | 5.6e-05 |  |
| TPP-66100 (VHH, also called ALBX00002-35GS-T023500029-35GS-ALB23002-A) EVQLVESGGGVVQPGGSLRLSCAASGLTFSSYAMGWFRQAPGKERERVVSISRGGGYTYYADSVKGRFTISRDNSKNTVYLQMNSLRPEDTALYYCAAARYWATGSEYEFDYWGQGTLVTVSSGGGGSGGGGSGGGGSGGGGSGGGGSGGGGSGGGGSEVQLVESGGGVVQPGDSLRLSCAASGGTFSTYVMGWFRQAPGKEREFVSAISQNSIHTYYANSVKGRFTISRDNSKNTVYLQLNSLRPEDTALYYCAASRFTSWYTADYEYDYWGQGTLVTVSSGGGGSGGGGSGGGGSGGGGSGGGGSGGGGSGGGGSEVQLVESGGGVVQPGGSLRLSCAASGFTFRSFGMSWVRQAPGKGPEWVSSISGSGSDTLYADSVKGRFTISRDNSKNTLYLQMNSLRPEDTALYYCTIGGSLSRSSQGTLVTVSSA | 0.0074 | 0.026 | 200000 | 0.00036 | 0.00027 | 0.00032 | 1.7 | 0.00034 | 0.00032 |  |
| TPP-66101 (other, also called DARPIN-35GS-ALB23002-35GS-ALB23002-A) DLGKKLLEAARAGQDDEVRELLKAGADVNAKDYFSHTPLHLAARNGHLKIVEVLLKAGADVNAKDFAGKTPLHLAANEGHLEIVEVLLKAGADVNAQDIFGKTPADIAADAGHEDIAEVLQKAAGGGGSGGGGSGGGGSGGGGSGGGGSGGGGSGGGGSEVQLVESGGGVVQPGGSLRLSCAASGFTFRSFGMSWVRQAPGKGPEWVSSISGSGSDTLYADSVKGRFTISRDNSKNTLYLQMNSLRPEDTALYYCTIGGSLSRSSQGTLVTVSSGGGGSGGGGSGGGGSGGGGSGGGGSGGGGSGGGGSEVQLVESGGGVVQPGGSLRLSCAASGFTFRSFGMSWVRQAPGKGPEWVSSISGSGSDTLYADSVKGRFTISRDNSKNTLYLQMNSLRPEDTALYYCTIGGSLSRSSQGTLVTVSSA | 95 | 65 | 300000 | 0.0001 | 0.00076 | 0.00023 | 5 | 0.0015 | 4e-05 |  |
| TPP-66102 (VHH, also called ALB23002-35GS-ALB23002-35GS-ALB23002-35GS-ALB23002-A) EVQLVESGGGVVQPGGSLRLSCAASGFTFRSFGMSWVRQAPGKGPEWVSSISGSGSDTLYADSVKGRFTISRDNSKNTLYLQMNSLRPEDTALYYCTIGGSLSRSSQGTLVTVSSGGGGSGGGGSGGGGSGGGGSGGGGSGGGGSGGGGSEVQLVESGGGVVQPGGSLRLSCAASGFTFRSFGMSWVRQAPGKGPEWVSSISGSGSDTLYADSVKGRFTISRDNSKNTLYLQMNSLRPEDTALYYCTIGGSLSRSSQGTLVTVSSGGGGSGGGGSGGGGSGGGGSGGGGSGGGGSGGGGSEVQLVESGGGVVQPGGSLRLSCAASGFTFRSFGMSWVRQAPGKGPEWVSSISGSGSDTLYADSVKGRFTISRDNSKNTLYLQMNSLRPEDTALYYCTIGGSLSRSSQGTLVTVSSGGGGSGGGGSGGGGSGGGGSGGGGSGGGGSGGGGSEVQLVESGGGVVQPGGSLRLSCAASGFTFRSFGMSWVRQAPGKGPEWVSSISGSGSDTLYADSVKGRFTISRDNSKNTLYLQMNSLRPEDTALYYCTIGGSLSRSSQGTLVTVSSA | 0.005 | 0.0066 | 280000 | 3.6e-05 | 0.00043 | 0.00012 | 2 | 0.00055 | 1.4e-05 |  |
| TPP-66093 (VHH, also called ALBX00002-35GS-ALB23002-A; ALBX00002-35GS-Alb223) EVQLVESGGGVVQPGGSLRLSCAASGLTFSSYAMGWFRQAPGKERERVVSISRGGGYTYYADSVKGRFTISRDNSKNTVYLQMNSLRPEDTALYYCAAARYWATGSEYEFDYWGQGTLVTVSSGGGGSGGGGSGGGGSGGGGSGGGGSGGGGSGGGGSEVQLVESGGGVVQPGGSLRLSCAASGFTFRSFGMSWVRQAPGKGPEWVSSISGSGSDTLYADSVKGRFTISRDNSKNTLYLQMNSLRPEDTALYYCTIGGSLSRSSQGTLVTVSSA | 0.00012 | 0.00084 | 180000 | 6.6e-05 | 0.00011 | 8.6e-05 | 0.66 | 0.00012 | 5.2e-05 |  |
| TPP-66097 (other, also called ABD-35GS-ALB23002-A; ABD-35GS-Alb223) LKEAKEKAIEELKKAGITSDYYFDLINKAKTVEGVNALKDEILKAGGGGSGGGGSGGGGSGGGGSGGGGSGGGGSGGGGSEVQLVESGGGVVQPGGSLRLSCAASGFTFRSFGMSWVRQAPGKGPEWVSSISGSGSDTLYADSVKGRFTISRDNSKNTLYLQMNSLRPEDTALYYCTIGGSLSRSSQGTLVTVSSA | 0.0023 | 0.0088 | 180000 | 8.4e-05 | 7.4e-05 | 0.00012 | 0.082 | 1.5e-05 | 6e-05 |  |
| TPP-66095 (other, also called DARPIN-35GS-ALB23002-A; DARPIN-35GS-Alb223) DLGKKLLEAARAGQDDEVRELLKAGADVNAKDYFSHTPLHLAARNGHLKIVEVLLKAGADVNAKDFAGKTPLHLAANEGHLEIVEVLLKAGADVNAQDIFGKTPADIAADAGHEDIAEVLQKAAGGGGSGGGGSGGGGSGGGGSGGGGSGGGGSGGGGSEVQLVESGGGVVQPGGSLRLSCAASGFTFRSFGMSWVRQAPGKGPEWVSSISGSGSDTLYADSVKGRFTISRDNSKNTLYLQMNSLRPEDTALYYCTIGGSLSRSSQGTLVTVSSA |  |  |  | 0.00016 | 0.00021 | 0.00038 |  |  | 8.3e-05 |  |
